Values of other authors, collected in paper PMC11698047.
Like-named read-outs stand apart in the source and are kept apart here. Each block holds one substance with its values, some of them ahead of it.

How the values were obtained:
Ras (Homo sapiens) [1] = molecular target: Ras (Homo sapiens) (UniProt P01112)
M-Ras (Homo sapiens) = M-Ras (Homo sapiens) (UniProt O14807)
Rap2 (Homo sapiens) = Rap2 (Homo sapiens) (UniProt P10114)
Rap1 (Homo sapiens) = Rap1 (Homo sapiens) (UniProt P62834)
R-Ras (Homo sapiens) = R-Ras (Homo sapiens) (UniProt P10301)
H-Ras (Homo sapiens) [2] = molecular target: H-Ras (Homo sapiens) (UniProt P01112)
TC21 (Homo sapiens) = TC21 (Homo sapiens) (UniProt P62070)
H-Ras (Homo sapiens) [3] = molecular target: H-Ras (Homo sapiens) (UniProt P01112); remark: listed apart in the source
Ras (Homo sapiens) [4] = molecular target: Ras (Homo sapiens) (UniProt P01112); remark: listed apart in the source

Sequence of Afadin RA1 (P55196 39-133): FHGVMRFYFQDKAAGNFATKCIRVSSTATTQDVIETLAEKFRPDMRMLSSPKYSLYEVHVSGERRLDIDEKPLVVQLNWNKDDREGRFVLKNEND
Sequence of Afadin RA1 with N-terminal α-helix (P55196 1-141): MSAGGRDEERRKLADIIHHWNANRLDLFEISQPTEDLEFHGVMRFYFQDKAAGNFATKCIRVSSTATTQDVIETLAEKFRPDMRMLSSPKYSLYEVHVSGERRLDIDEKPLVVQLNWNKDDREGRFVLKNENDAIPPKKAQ
Sequence of Afadin RA1 without N-terminal α-helix (P55196 39-133): as the sequence (P55196 39-133) above
Sequence of Afadin RA2 (P55196 246-348): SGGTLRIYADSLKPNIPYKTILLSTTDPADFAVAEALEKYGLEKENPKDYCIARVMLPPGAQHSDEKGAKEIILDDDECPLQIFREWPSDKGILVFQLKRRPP
Sequence of TC21 (Homo sapiens) (P62070 2-201): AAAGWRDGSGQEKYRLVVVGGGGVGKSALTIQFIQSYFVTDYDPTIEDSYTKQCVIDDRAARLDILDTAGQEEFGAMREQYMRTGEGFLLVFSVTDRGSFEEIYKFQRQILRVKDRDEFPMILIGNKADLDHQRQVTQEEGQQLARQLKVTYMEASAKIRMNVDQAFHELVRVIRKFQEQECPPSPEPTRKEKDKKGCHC
Sequence of R-Ras (Homo sapiens) (P10301 1-215): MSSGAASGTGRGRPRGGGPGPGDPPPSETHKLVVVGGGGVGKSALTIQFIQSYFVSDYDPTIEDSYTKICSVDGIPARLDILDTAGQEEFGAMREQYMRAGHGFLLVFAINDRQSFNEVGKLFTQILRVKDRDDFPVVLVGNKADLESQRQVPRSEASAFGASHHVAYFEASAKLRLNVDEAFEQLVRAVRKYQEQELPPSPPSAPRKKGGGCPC
Sequence of Rap2 (Homo sapiens) (P10114 1-180): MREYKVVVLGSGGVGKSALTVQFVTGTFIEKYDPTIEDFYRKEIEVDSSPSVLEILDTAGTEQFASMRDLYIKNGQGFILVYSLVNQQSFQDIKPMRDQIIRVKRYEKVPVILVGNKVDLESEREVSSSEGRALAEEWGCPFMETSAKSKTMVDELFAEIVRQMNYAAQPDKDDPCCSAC
Sequence of Rap1 (Homo sapiens) (P62834 1-181): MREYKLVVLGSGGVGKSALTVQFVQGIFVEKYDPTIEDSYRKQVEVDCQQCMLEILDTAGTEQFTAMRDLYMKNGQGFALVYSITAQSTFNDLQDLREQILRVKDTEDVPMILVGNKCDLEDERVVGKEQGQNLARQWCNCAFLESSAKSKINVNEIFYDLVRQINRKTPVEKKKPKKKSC

- Kd (Ras (Homo sapiens) [1]): 17.8 µM
Substance: Afadin RA1 without N-terminal α-helix (from UniProt P55196)

- Kd (M-Ras (Homo sapiens)): 2.5 µM
- Kd (Rap2 (Homo sapiens)): 2.5 µM
- Kd (Rap1 (Homo sapiens)): 0.24 µM
- Kd (R-Ras (Homo sapiens)): 16 µM
- Kd (H-Ras (Homo sapiens) [2]): 2.5 µM
- Kd (TC21 (Homo sapiens)): 16 µM
Substance: Afadin RA1 (from UniProt P55196)

- Kd (H-Ras (Homo sapiens) [3]): 30 µM
Substance: Afadin RA2 (from UniProt P55196)

- Kd (Ras (Homo sapiens) [4]): 4.1 µM
Substance: Afadin RA1 with N-terminal α-helix (from UniProt P55196)
